From paper PMC3316669

Key:
[1] = biological target: ssTorA-SBP signal peptide (Escherichia coli) (UniProt P33225); assay: SPR; settings: cited from earlier work
[2] = biological target: MBP-ssTorA signal peptide (Escherichia coli) (UniProt P33225); assay: ITC; settings: cited from earlier work
[3] = biological target: TorA signal peptide 10-26 (Escherichia coli) (UniProt P33225); assay: ITC; settings: cited from earlier work
[4] = biological target: TorD with N-terminal His-tag (E. coli) (UniProt P36662); assay: SPR; quantitative, equilibrium response against pre-protein concentration; His-tagged REMP held on a Ni-NTA chip to 500 RU, 20 µl/min, 25°C, reference surface subtracted; Scatchard plot and Langmuir 1:1 fit; 10 mM HEPES, 150 mM NaCl, 50 µM EDTA, 0.005% P20, pH 7.4

Sequence of TorD (P36662 whole entry): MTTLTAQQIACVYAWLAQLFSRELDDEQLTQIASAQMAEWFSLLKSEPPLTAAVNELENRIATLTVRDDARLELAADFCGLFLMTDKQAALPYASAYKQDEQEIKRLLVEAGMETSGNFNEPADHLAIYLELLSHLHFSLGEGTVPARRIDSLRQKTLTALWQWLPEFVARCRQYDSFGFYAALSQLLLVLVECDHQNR

| Substance | Kd [4] [nM] | other results |
| --- | --- | --- |
| TorD (from UniProt P36662) |  | Kd [1]: 3800 nM; Kd [2]: 59 nM; Kd [3]: 1700 nM |
| ssTorA(KK)-GFP (domain or fragment) | 540 |  |
| ssTorA(KKK)-GFP (domain or fragment) | 4900 |  |
| ssTorA(KR)-GFP (domain or fragment) | 2900 |  |

Further lines, with some results ahead:

| Kd [4] [nM] | Substance | other results |
| --- | --- | --- |
| 3600 | ssTorA(RK)-GFP (domain or fragment) |  |
| 330 | ssTorA-GFP (signal sequence of TorA fused to GFP) (domain or fragment) | stoichiometry N [4]: 1 |
